The results in this text go back to patent US20240287172A1 (SCIRHOM, published 2024).

One experiment addresses T1, hiR2-FL-H505R-T7 (human, UniProt Q6PJF5 1-856).
T1 sequence: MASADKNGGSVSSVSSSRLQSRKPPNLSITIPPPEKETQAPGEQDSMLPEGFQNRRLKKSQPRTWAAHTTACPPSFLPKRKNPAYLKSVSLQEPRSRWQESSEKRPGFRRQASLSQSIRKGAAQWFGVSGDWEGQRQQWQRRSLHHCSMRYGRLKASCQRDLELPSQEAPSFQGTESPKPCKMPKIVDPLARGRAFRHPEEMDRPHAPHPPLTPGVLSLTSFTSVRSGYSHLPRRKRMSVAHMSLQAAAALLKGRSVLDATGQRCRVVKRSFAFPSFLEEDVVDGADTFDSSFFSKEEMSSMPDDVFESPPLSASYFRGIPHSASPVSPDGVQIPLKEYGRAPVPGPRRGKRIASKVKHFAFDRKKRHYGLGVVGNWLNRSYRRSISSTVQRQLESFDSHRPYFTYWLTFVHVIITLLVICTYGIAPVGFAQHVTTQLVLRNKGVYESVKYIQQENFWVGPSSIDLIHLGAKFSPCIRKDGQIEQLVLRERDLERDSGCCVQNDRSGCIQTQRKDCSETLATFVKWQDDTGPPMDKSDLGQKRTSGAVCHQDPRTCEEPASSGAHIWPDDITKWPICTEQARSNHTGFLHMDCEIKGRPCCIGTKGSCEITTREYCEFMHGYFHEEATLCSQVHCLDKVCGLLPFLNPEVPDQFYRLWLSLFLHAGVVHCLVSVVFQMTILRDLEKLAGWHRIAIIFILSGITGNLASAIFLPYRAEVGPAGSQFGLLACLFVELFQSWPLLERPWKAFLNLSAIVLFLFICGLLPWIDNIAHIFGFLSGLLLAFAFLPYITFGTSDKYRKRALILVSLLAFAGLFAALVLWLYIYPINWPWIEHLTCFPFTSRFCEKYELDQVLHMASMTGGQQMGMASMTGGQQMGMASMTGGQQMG
Description: FACS, MEF-DKO cells, 3 µg/ml.

The target of a further experiment is T2, hiR2-FL-G546A-T7 (human, UniProt Q6PJF5 1-856).
T2 sequence: T1 sequence with R505H, G546A
Nature of the experiment: FACS on MEF-DKO cells.

Residue numbers refer to the chain shown, from its start.

B1: antibody 50 (antibody, V domains shown)
VH: QVQLQQSGAELVRPGASVKVSCKASGYAFSNYLIEWVKQRPGQGLEWIGVINPGSGFTKYNEKFKGKATLTADKSSSTAYMQLSSLTSEDSAVYFCARGLYRAMDYWGQGTSVTVSS
VL: DIQMTQSPASQSASLGESVTITCLASQTIGTWLAWYQQKPGKSPQLLIYAAASLADGVPSRFSGGGSGTKFSFKISSLQAEDFVNYYCQQIYSTPYTFGGGTKLEIK
notes: mouse IgG, kappa light chain; also called clone #50; purified antibody 50
As for B1, the “loss of binding vs wild type” value with hiR2-FL-H505R-T7 is at least 95%.

B2: antibody 5 (antibody, V domains shown)
VH: QVTLKESGPGILQPSQTLSLTCSFSGFSLSTFGMGVGWIRQPSGKGLEWLAHIWWDDEKYYNSALKSRLTISKATSKNQAFLKIANVDTADTATYYCARISNYGSNYWYFNVWGTGTTVTVSS
VL: QVVLTQSPALMSASPGEKVTMTCSAGSSVSCMYWYQQKPGSSPRVLIYDTSNLASGVPARFTGSGSGTSYSLTISRMEAEDAASYYCQQWNSYPLTFGAGTKLELK
notes: mouse IgG, kappa light chain; also called clone #5; purified antibody 5
Consider B2, for which the binding result with hiR2-FL-G546A-T7 is “no binding (tested: 3 µg/ml)”.
